According to the supplement of paper PMC10201428:
± gives the standard deviation of the averaged measurements.

B1: library; a variant is named by its letters at N, in order (parent)
chain: ACATTTGTTGATACAACCATAAAATGATAATTACACCCATAAATTGATAATTATCACACCCANNNNNNNNNNNNNNCTCTGATCATAGTCAGACCAACATTGCTACGACCCGTATTCGCACCGACAC

What was measured:
[1] = variants of: B1; experiment: relative integration efficiency (T-RL orientation) vs wild-type transposon end (log2 (normalized fold change)); transposon end mutated: right end (5 bp flank + 75 bp right end); higher = more efficient transposition; details: with VchCAST RNA-guided transposition machinery (E. coli BL21(DE3) host, lacZ target)
Description: (§1)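 Pooled, barcoded VchCAST (Tn6677) mini-transposon donor libraries; each variable transposon-end sequence sits in a fixed pDonor mini-transposon context (10-bp barcode and cargo not included). Left- or right-end libraries were co-transformed with pEffector (TniQ-Cascade, TnsABC, lacZ crRNA, T7, 0.1 mM IPTG) into E. coli BL21(DE3) and grown 18 h at 37 C. T-LR and T-RL junction amplicons were sequenced; output/input barcode fold change was normalised to the mean of four wild-type barcodes and log2-transformed. Two biological replicates; zero-count/undetected variants carry floor values (-10 / -15), censored here. Barcode uncoupling by PCR recombination adds noise.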

[2] = variants of: B1; experiment: relative integration efficiency (T-LR orientation) vs wild-type transposon end (log2 (normalized fold change)); transposon end mutated: right end (5 bp flank + 75 bp right end); higher = more efficient transposition; details: with VchCAST RNA-guided transposition machinery (E. coli BL21(DE3) host, lacZ target)
Description: as §1

Variant | relative integration efficiency (log2) [1] | relative integration efficiency (log2) [2]
ATTTAACTATAACG T52G | -1.31 ± 0.41 | 2.29 ± 0.27
ATTTAACTATAACG T52A | -1.26 ± 0.2 | 2.3 ± 0.12
ATTTAACTATAACG A27G | -1.43 ± 0.34 | 2.14 ± 0.29
ATTTAACTATAACG A27C | -1.49 ± 0.28 | 1.82 ± 0.022
ATTTAACTATAACG A27T | -1.93 ± 0.43 | 1.735 ± 0.0049
ATTTAACTATAACG | -0.618 ± 0.17 | 2.52 ± 0.22
ATTTAACTATAACG C34G | -1.76 ± 0.18 | 1.73 ± 0.16
ATTTAACTATAACG C34A | -1.12 ± 0.27 | 2.11 ± 0.056
TAAATTGATATTGC T8G | -5.89 ± 0.83 | -3.6 ± 0.47
TAATATGATATTGC | -0.0671 ± 0.049 | 0.438 ± 0.31
ATTTAACTATAACG T45A | -1.14 ± 0.22 | 1.93 ± 0.065
ATTTAACTATAACG T45G | -1.16 ± 0.28 | 1.56 ± 0.031
ATTTAACTATAACG A41T | -0.673 ± 0.15 | 2.347 ± 0.0099
ATTTAACTATAACG A41C | -1.53 ± 0.21 | 1.39 ± 0.29
TACATTGATATTGC | -0.674 ± 0.11 | 1.79 ± 0.13
TAAATTGATCTTGC | 0.011 ± 0.051 | 0.816 ± 0.13
TAAATTGATATTGC T78C | -0.00404 ± 0.024 | -0.0349 ± 0.43
TAAATTGATATTGC T78G | 0.0385 ± 0.031 | 0.078 ± 0.44
TAAATTGATATTGC T78A | -0.396 ± 0.15 | -0.018 ± 0.18
ATTTAACTATAACG G7C | -1.39 ± 0.16 | 1.24 ± 0.17
GCCCTTGATATTGC | -0.468 ± 0.1 | 2.5 ± 0.11
TAAGTTGATATTTT C59A | 0.0617 ± 0.048 | -0.156 ± 0.28
GCCATTGATATTGC A62C | -0.86 ± 0.27 | 2.47 ± 0.15
TAAATTGATATTGC T28C | -0.278 ± 0.096 | -0.203 ± 0.2

Variant | relative integration efficiency (log2) [1] | relative integration efficiency (log2) [2]
TAAATTGATATTGC T28G | -0.476 ± 0.036 | 0.189 ± 0.11
TAAATTGATATTGC T28A | -0.215 ± 0.21 | 0.152 ± 0.12
TAAATTGTAATTGC | -0.121 ± 0.11 | 1.88 ± 0.1
TATTTTGATATTGC | -0.123 ± 0.052 | 0.19 ± 0.27
TAAATTGATATTGC T20A | -0.299 ± 0.1 | -0.359 ± 0.083
TAAATTGATATTGC T20C | -0.448 ± 0.19 | -0.577 ± 0.33
TAAATTGATATTGC T20G | -1.34 ± 0.03 | -1.12 ± 0.28
ATTTAACTATAACG A33C | -1.12 ± 0.26 | 2.34 ± 0.17
ATTTAACTATAACG A33G | -0.971 ± 0.32 | 2.42 ± 0.046
TAAATTGCGATTGC | -0.463 ± 0.06 | 1.51 ± 0.028
ATTTAACTATAACG T20C | -1.47 ± 0.3 | 1.3 ± 0.48
ATTTAACTATAACG T20G | -2 ± 0.4 | 0.721 ± 0.045
ATTTAACTATAACG T20A | -1.07 ± 0.11 | 2.04 ± 0.098
ATTTAACTATAACG A56T | -0.909 ± 0.39 | 2.57 ± 0.2
ATTTAACTATAACG A56C | -1.09 ± 0.21 | 2.32 ± 0.19
ATTTAACTATAACG A62C | -1.03 ± 0.27 | 2.22 ± 0.21
TTTATTGATATTGC | 0.0323 ± 0.048 | 0.91 ± 0.071
ATTTAACTATAACG A42C | -1.82 ± 0.3 | 1.03 ± 0.13
ATTTAACTATAACG A42G | -1.62 ± 0.22 | 1.19 ± 0.16
ATTTAACTATAACG A42T | -0.805 ± 0.085 | 2.24 ± 0.14
TAAATTGATTAACC | -0.157 ± 0.13 | 1.35 ± 0.077
TAAATTTCTATTGC | -0.55 ± 0.13 | 2.4 ± 0.28
ATTTAACTATAACG G46T | -1.25 ± 0.4 | 1.87 ± 0.23
ATTTAACTATAACG G46C | -1.79 ± 0.26 | 1.05 ± 0.12

Variant | relative integration efficiency (log2) [1] | relative integration efficiency (log2) [2]
ATTTAACTATAACG G46A | -1.36 ± 0.26 | 2.007 ± 0.0045
ATTTAACTATAACG G26C | -2.84 ± 0.47 | 1.17 ± 0.16
ATTTAACTATAACG G26T | -1.75 ± 0.32 | 2.24 ± 0.073
ATTTAACTATAACG G26A | -1.27 ± 0.28 | 2.69 ± 0.084
ATTTAACTATAACG C57A | -0.68 ± 0.085 | 2.48 ± 0.17
ATTTAACTATAACG C57G | -0.953 ± 0.42 | 2.5 ± 0.16
ATTTAACTATAACG T25C | -1.07 ± 0.25 | 2.2 ± 0.17
ATTTAACTATAACG T25G | -1.44 ± 0.3 | 1.851 ± 0.01
ATTTAACTATAACG T25A | -1.13 ± 0.11 | 2.26 ± 0.046
TAAATTGATATTGC T54C | -0.0952 ± 0.0069 | -0.015 ± 0.36
TAAATTGATATTGC T54G | 0.0616 ± 0.064 | 0.247 ± 0.082
TAAATTGATATTGC T54A | -0.338 ± 0.15 | 0.141 ± 0.18
TAAATTGATATTGC T44A | 0.0685 ± 0.021 | -0.0417 ± 0.00085
TAAATTGATATTGC T44G | -0.00517 ± 0.11 | -0.385 ± 0.26
TAAATTGATATTGC T44C | -0.0775 ± 0.082 | -0.274 ± 0.09
TACCTTGAAATTGC C59A | -1.62 ± 0.24 | 1.94 ± 0.21
TAAATTTATATTGC | -0.361 ± 0.18 | 1.7 ± 0.14
TAAATTGATATTGC T25C | -0.146 ± 0.0084 | -0.488 ± 0.0056
TAAATTGATATTGC T25A | -0.524 ± 0.069 | -0.8 ± 0.34
TAAATTGATATTGC T25G | -0.25 ± 0.041 | -0.0581 ± 0.34
TAAATTGCGCGTGC | -0.618 ± 0.12 | 1.7 ± 0.1
TAACTTGATATTGC | 0.11 ± 0.027 | 0.325 ± 0.16
ATTTAACTATAACG A22T | -0.696 ± 0.12 | 2.5 ± 0.18
ATTTAACTATAACG A22C | -1.71 ± 0.34 | 1.21 ± 0.057

Variant | relative integration efficiency (log2) [1] | relative integration efficiency (log2) [2]
ATTTAACTATAACG A22G | -1.42 ± 0.27 | 1.36 ± 0.45
TAAGTTGATATTGC | -0.0544 ± 0.061 | 0.2 ± 0.074
ATTTAACTATAACG T40G | -2.18 ± 0.11 | 0.496 ± 0.47
ATTTAACTATAACG T40A | -1.01 ± 0.19 | 1.82 ± 0.13
ATTTAACTATAACG T40C | -1.72 ± 0.32 | 1.196 ± 0.0054
TAAATTGATATTGG C77G | -0.0309 ± 0.041 | -0.0151 ± 0.56
ATTATTGATATTGC A62T | -0.325 ± 0.075 | 1.957 ± 0.011
ATTTAACTATAACG A35C | -0.737 ± 0.15 | 2.11 ± 0.15
ATTTAACTATAACG A35T | -1 ± 0.29 | 2.07 ± 0.25
TAAATTGATATTGC T48G | -0.12 ± 0.078 | -0.379 ± 0.13
TAAATTGATATTGC T48A | 0.196 ± 0.2 | 0.629 ± 0.21
TAAATTGATATTGC T48C | -0.4021 ± 0.003 | -0.401 ± 0.25
TAAATTGATATTTA | 0.1 ± 0.034 | 0.122 ± 0.099
TAAATTGATATTTC | -0.0163 ± 0.045 | -0.13 ± 0.15
TAACGTGATATTGC | -0.0871 ± 0.004 | 0.67 ± 0.2
TAAATTGATATTGC T52G | -0.506 ± 0.15 | -0.16 ± 0.37
TAAATTGATATTGC T52C | -0.34 ± 0.15 | -0.286 ± 0.39
TAAATTGATATTGC T52A | -0.149 ± 0.095 | 0.276 ± 0.4
ATTTAACTATAACG T48G | -1.18 ± 0.2 | 1.85 ± 0.083
ATTTAACTATAACG T48C | -1.24 ± 0.25 | 2.03 ± 0.086
ATTTAACTATAACG A58C | -0.52 ± 0.37 | 2.86 ± 0.073
ATTTAACTATAACG A58T | -0.708 ± 0.029 | 2.39 ± 0.19
ATTTAACTATAACG A23G | -0.928 ± 0.18 | 2.07 ± 0.26
ATTTAACTATAACG A23C | -1.16 ± 0.088 | 1.98 ± 0.17

Variant | relative integration efficiency (log2) [1] | relative integration efficiency (log2) [2]
ATTTAACTATAACG A23T | -0.809 ± 0.12 | 1.952 ± 0.015
ATTTAACTATAACG A15T | -1.1 ± 0.15 | 1.8 ± 0.077
ATTTAACTATAACG A15C | -0.749 ± 0.29 | 2.73 ± 0.074
TAAATTGATATTGC T9C | 0.234 ± 0.012 | 0.331 ± 0.42
TAAATTGATATTGC T9G | 0.104 ± 0.038 | 0.0503 ± 0.46
TAAATTGATATTGC T9A | -0.0594 ± 0.085 | -0.234 ± 0.3
ATTTAACTATAACG A21C | -1.05 ± 0.21 | 1.892 ± 0.013
ATTTAACTATAACG A21T | -0.978 ± 0.093 | 2 ± 0.062
ATTTAACTATAACG C38G | -0.843 ± 0.15 | 2.06 ± 0.035
ATTTAACTATAACG C38A | -1.04 ± 0.17 | 2.02 ± 0.11
ATTTAACTATAACG C38T | -0.901 ± 0.15 | 2.05 ± 0.13
ATTTAACTATAACG A30C | -1.2 ± 0.42 | 2.682 ± 0.016
ATTTAACTATAACG A30T | 0.406 ± 0.54 | 4.401 ± 0.043
ATTTAACTATAACG A30G | -1.51 ± 0.13 | 2.11 ± 0.26
TTTTATGATATTGC | -0.0751 ± 0.044 | 0.744 ± 0.14
TAGATTGATATTGC | -0.557 ± 0.12 | 1.925 ± 0.0098
ATTTAACTATAACG C61A | -0.657 ± 0.15 | 2.0647 ± 0.00092
ATTTAACTATAACG C61G | -0.633 ± 0.14 | 2.57 ± 0.16
TAAATTGATATTGC T31G | -0.564 ± 0.13 | 0.2 ± 0.23
TAAATTGATATTGC T31A | -0.436 ± 0.1 | 0.0674 ± 0.1
TAAATTGATATTGC T31C | -0.0667 ± 0.0077 | 0.344 ± 0.35
